Assay results as given in article PMC12127727, “Double the Double: Revisiting BCL11B's Multimerization” (Proteins, 2025).

Columns and labels:
[1] = target: the molecule itself; experiment: cross-linking; constructs incubated with BS(PEG)5 (bis-succinimide ester-activated PEG, 21.7 Å), then reducing 16% tricine SDS-PAGE of crosslinked and control samples
[2] = target: the molecule itself; experiment: SEC; analytical size exclusion chromatography of the purified recombinant constructs; stoichiometric factors calculated from elution volumes with a calibration curve (Figure S1); rough estimate of molecular weights

Protein | stoichiometry N [1] | stoichiometry N [2]
BCL11B_(42–94) WT (N-terminal wild-type zinc finger domain, ZF0) (domain or fragment, human, UniProt Q9C0K0 42-94, looked up, B Cell Lymphoma/Leukemia 11B (BCL11B), human, residues 42-94, atypical CCHC zinc finger domain ZF0; source: E. coli, recombinantly expressed, purified) SGLGLMVGGPDPDLLTCGQCQMNFPLGDILVFIEHKRKQCGGSLGACYDKALD | 4 | 7
BCL11B_(42–94) L71A/V72A (domain or fragment, human, UniProt Q9C0K0 42-94, looked up, BCL11B, human, residues 42-94 (ZF0) with L71A and V72A; also called double mutant L71A/V72A; source: E. coli, recombinantly expressed, purified) SGLGLMVGGPDPDLLTCGQCQMNFPLGDIAAFIEHKRKQCGGSLGACYDKALD | 4 | 
BCL11B_(42–94) C81H (domain or fragment, human, UniProt Q9C0K0 42-94, looked up, BCL11B, human, residues 42-94 (ZF0) with C81H, which turns the CCHC zinc finger into a C2H2 zinc finger; also called zinc finger mutant C81H; source: E. coli, recombinantly expressed, purified) SGLGLMVGGPDPDLLTCGQCQMNFPLGDILVFIEHKRKQHGGSLGACYDKALD | 4 | 
BCL11B_(42–94) I70A (domain or fragment, human, UniProt Q9C0K0 42-94, looked up, BCL11B, human, residues 42-94 (ZF0) with I70A; CD spectra indicate an incomplete zinc finger fold; source: E. coli, recombinantly expressed, purified) SGLGLMVGGPDPDLLTCGQCQMNFPLGDALVFIEHKRKQCGGSLGACYDKALD | 2 | 
BCL11B_(42–94) I74A (domain or fragment, human, UniProt Q9C0K0 42-94, looked up, BCL11B, human, residues 42-94 (ZF0) with I74A; CD spectra indicate an incomplete zinc finger fold; source: E. coli, recombinantly expressed, purified) SGLGLMVGGPDPDLLTCGQCQMNFPLGDILVFAEHKRKQCGGSLGACYDKALD | 2 | 
BCL11B_(42–94) K77A (domain or fragment, human, UniProt Q9C0K0 42-94, looked up, BCL11B, human, residues 42-94 (ZF0) with K77A; also called lysine mutant K77A; source: E. coli, recombinantly expressed, purified) SGLGLMVGGPDPDLLTCGQCQMNFPLGDILVFIEHARKQCGGSLGACYDKALD | 2 | 
BCL11B_(42–220) WT (domain or fragment, human, UniProt Q9C0K0 42-220, looked up, BCL11B, human, residues 42-220: ZF0 extended up until the first C2H2 zinc finger domain (ZF1); source: E. coli, recombinantly expressed, purified) SGLGLMVGGPDPDLLTCGQCQMNFPLGDILVFIEHKRKQCGGSLGACYDKALDKDSPPPSSRSELRKVSEPVEIGIQVTPDEDDHLLSPTKGICPKQENIAGPCRPAQLPAVAPIAASSHPHSSVITSPLRALGALPPCLPLPCCSARPVSGDGTQGEGQTEAPFGCQCQLSGKDEPSS |  | 16.6
BCL11B_(42–426) WT (domain or fragment, human, UniProt Q9C0K0 42-426, looked up, source: E. coli, recombinantly expressed, purified) SGLGLMVGGPDPDLLTCGQCQMNFPLGDILVFIEHKRKQCGGSLGACYDKALDKDSPPPSSRSELRKVSEPVEIGIQVTPDEDDHLLSPTKGICPKQENIAGPCRPAQLPAVAPIAASSHPHSSVITSPLRALGALPPCLPLPCCSARPVSGDGTQGEGQTEAPFGCQCQLSGKDEPSSYICTTCKQPFNSAWFLLQHAQNTHGFRIYLEPGPASSSLTPRLTIPPPLGPEAVAQSPLMNFLGDSNPFNLLRMTGPILRDHPGFGEGRLPGTPPLFSPPPRHHLDPHRLSAEEMGLVAQHPSAFDRVMRLNPMAIDSPAMDFSRRLRELAGNSSTPPPVSPGRGNPMHRLLNPFQPSPKSPFLSTPPLPPMPPGGTPPPQPPAKS |  | 4
